Test results: patent publication US6448390

Target: amphotropic retrovirus receptor, endogenous on human 293 cells (human) (UniProt Q08357)
Assay: cell-based or functional assay

UniProt Q08357, sequence (Q08357 whole entry): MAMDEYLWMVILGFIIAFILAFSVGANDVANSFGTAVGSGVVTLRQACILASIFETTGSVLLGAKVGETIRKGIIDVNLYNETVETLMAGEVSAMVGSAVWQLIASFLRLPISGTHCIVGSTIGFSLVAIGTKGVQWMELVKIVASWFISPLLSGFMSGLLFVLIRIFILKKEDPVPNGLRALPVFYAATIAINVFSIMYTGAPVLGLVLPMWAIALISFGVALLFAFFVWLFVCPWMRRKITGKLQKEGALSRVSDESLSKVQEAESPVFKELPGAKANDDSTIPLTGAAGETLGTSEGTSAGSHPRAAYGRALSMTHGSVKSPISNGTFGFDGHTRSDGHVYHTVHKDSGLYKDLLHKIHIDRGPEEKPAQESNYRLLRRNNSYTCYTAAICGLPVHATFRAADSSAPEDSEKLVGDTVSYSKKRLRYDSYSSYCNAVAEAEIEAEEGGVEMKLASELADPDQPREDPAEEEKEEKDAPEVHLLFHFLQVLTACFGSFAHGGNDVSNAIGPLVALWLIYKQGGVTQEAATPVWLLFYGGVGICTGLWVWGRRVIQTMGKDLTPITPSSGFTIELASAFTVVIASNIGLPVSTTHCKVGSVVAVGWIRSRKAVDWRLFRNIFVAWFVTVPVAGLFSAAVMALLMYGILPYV

ampho/eco+Q227R/D243Y fusion envelope protein: residues 1-208 of amphotropic 4070A envelope protein fused between Serine 6 and Proline 7 of MoMLV mutant envelope protein Q227R/D243Y
delivery of the lacZ gene (infectious titer) to human 293 cells expressing the amphotropic receptor but not the ecotropic receptor: 1000 fold
